# In patent EP4714976A1 (Sunshine Lake Pharma Co., Ltd., dated 2026):
# T1: FGFR4 (acro) (UniProt P22455 22-369)
# T1 sequence (looked up): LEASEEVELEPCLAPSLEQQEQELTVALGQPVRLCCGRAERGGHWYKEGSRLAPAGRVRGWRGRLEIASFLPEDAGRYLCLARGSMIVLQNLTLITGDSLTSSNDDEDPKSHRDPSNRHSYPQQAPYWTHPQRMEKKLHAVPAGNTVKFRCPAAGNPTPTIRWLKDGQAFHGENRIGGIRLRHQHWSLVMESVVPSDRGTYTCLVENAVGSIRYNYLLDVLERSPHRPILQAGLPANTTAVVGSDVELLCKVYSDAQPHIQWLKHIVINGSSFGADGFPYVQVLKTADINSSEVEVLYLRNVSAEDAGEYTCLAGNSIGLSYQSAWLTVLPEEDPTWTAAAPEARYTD
# Key:
# [1] = biological target: T2, human FGFR2b (Kaixia Biotechnology, catalog number FGR-HM1BB) (human, UniProt P21802-3 22-378); assay: BLI, antibody on AHC2 sensor
# T2 construct: extracellular domain; bought; also called hFGFR2b; human FGFR2b protein
# T2 sequence (P21802 other isoform, or with tags, fused parts or gaps): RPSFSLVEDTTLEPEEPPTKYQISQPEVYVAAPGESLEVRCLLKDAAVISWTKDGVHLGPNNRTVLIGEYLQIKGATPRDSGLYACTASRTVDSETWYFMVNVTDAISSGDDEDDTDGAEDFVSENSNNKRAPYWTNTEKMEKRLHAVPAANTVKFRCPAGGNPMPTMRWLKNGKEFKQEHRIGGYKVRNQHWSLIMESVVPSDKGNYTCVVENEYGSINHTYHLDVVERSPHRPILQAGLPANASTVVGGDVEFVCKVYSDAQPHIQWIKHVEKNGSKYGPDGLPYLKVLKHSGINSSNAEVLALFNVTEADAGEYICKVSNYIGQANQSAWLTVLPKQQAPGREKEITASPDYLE
# [2] = biological target: T3, FGFR2b on KATO III cells (human, UniProt P21802-3 22-822); assay: flow cytometry, KATO III cells
# T3 construct: whole, on cells; also called KATO III cells that overexpress FGFR2b
# T3 sequence (P21802 other isoform, or with tags, fused parts or gaps): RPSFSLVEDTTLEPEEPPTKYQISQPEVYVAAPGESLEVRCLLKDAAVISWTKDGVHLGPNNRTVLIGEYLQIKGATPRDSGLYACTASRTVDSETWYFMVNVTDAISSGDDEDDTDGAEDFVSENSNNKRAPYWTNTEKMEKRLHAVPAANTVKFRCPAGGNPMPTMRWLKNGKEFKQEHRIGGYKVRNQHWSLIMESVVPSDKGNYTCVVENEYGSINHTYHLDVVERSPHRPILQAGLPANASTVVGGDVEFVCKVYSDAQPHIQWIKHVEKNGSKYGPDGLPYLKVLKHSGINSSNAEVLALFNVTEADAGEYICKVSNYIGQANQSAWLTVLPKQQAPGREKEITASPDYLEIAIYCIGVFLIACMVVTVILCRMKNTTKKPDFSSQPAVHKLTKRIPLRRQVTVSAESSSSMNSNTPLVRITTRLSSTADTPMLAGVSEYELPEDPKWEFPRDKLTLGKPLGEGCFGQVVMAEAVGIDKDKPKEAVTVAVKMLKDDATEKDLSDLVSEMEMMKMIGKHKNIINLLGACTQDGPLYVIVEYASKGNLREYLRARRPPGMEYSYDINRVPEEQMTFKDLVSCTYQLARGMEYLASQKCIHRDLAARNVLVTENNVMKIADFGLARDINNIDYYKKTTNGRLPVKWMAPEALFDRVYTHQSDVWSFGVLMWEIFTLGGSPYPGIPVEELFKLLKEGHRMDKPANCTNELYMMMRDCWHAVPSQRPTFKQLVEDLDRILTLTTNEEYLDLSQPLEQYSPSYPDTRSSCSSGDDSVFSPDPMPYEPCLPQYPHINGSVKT
# [3] = biological target: T4, FGFR2c (acro) (UniProt P21802 22-377); assay: ELISA
# T4 sequence (P21802 22-377): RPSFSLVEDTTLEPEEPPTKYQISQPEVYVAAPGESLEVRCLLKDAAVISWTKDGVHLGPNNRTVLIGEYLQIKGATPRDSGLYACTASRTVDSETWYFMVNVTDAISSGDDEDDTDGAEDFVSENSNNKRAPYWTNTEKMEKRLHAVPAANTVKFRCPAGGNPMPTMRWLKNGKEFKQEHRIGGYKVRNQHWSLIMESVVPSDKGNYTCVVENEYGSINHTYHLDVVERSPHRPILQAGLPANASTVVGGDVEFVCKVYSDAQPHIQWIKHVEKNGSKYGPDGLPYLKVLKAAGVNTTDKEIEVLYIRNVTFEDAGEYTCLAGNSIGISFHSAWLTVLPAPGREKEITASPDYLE
# [4] = biological target: T1, FGFR4 (acro); assay: ELISA
# [5] = biological target: T1, FGFR4 (acro); assay: ELISA, antibody 10 µg/mL
# [6] = biological target: T5, recombinant cynomolgus monkey FGFR2b (cynomolgus monkey); assay: ELISA, antibody 1ug/mL
# T5 construct: extracellular domain; bought; also called cynomolgus macaque FGFR2b
# [7] = biological target: T4, FGFR2c (acro); assay: ELISA, antibody 10 µg/mL
# [8] = biological target: T2, human FGFR2b (Kaixia Biotechnology, …); assay: ELISA, FGFR2b coated at 1 µg/ml
Kd [1],koff [1],kon [1],EC50 [2],binding result [3],binding result [4],OD (450 nm) value [5],OD (450 nm) value [6],OD (450 nm) value [7],EC50 [8],Binder
4.35 nM,0.00111 s⁻¹,256000 M⁻¹ s⁻¹,0.298 µg/mL,no binding (tested: 10 µg/mL),no binding (tested: 10 µg/mL),0.125,3.15,0.114,0.0154 µg/mL,"3E7 scFv-Fc (Fc fusion, scFv-Fc dimer) QVQLQQSGAELVKPGASVKMSCKASGYTFTIYNIHWVRQTPGQGLEWIGLIYPDNGDTSYNQKFKAKATLTADKSSSTAYMQLSSLTSEDSAVYYCARGGFDYWGQGTTLTVSSGGGGSGGGGSGGGGSNIVMTQSQKFMSTSVGDRVSVTCKASQNVGTNVAWYQQKPGQSPKALIYSASYRYSGVPDRFTGSGSGTDFTLTISGVQAEDLADYYCQQHYNTPYTFGGGTKLEIKESKYGPPCPPCPAPEAAGGPSVFLFPPKPKDTLMISRTPEVTCVVVDVSQEDPEVQFNWYVDGVEVHNAKTKPREEQFNSTYRVVSVLTVLHQDWLNGKEYKCKVSNKGLPSSIEKTISKAKGQPREPQVYTLPPSQEEMTKNQVSLTCLVKGFYPSDIAVEWESNGQPENNYKTTPPVLDSDGSFFLYSKLTVDKSRWQEGNVFSCSVMHEALHNHYTQKSLSLSLG"
6.13 nM,0.00203 s⁻¹,331000 M⁻¹ s⁻¹,0.164 µg/mL,no binding (tested: 10 µg/mL),no binding (tested: 10 µg/mL),0.093,3.14,0.086,0.0156 µg/mL,"3F11 scFv-Fc (Fc fusion, scFv-Fc dimer) QVQLQQSGAELVKPGASVKMSCKASGYTFAPYNIHWVRQTPGQGLEWIGLIYPDNGDTSYNQKFKAKATLTADKSSSTAYMQLSSLTSEDSAVYYCARGGFDYWGQGTSLTVSSGGGGSGGGGSGGGGSDIVMTQSQKFMSTSVGDRVSVTCKASQNVGTNVAWYQQKPGQSPKALIYSASYRYSGVPDRFTGSGSGTDFTLTISNVQSEDLAEYFCQQHYSTPFTFGSGTKLEIKESKYGPPCPPCPAPEAAGGPSVFLFPPKPKDTLMISRTPEVTCVVVDVSQEDPEVQFNWYVDGVEVHNAKTKPREEQFNSTYRVVSVLTVLHQDWLNGKEYKCKVSNKGLPSSIEKTISKAKGQPREPQVYTLPPSQEEMTKNQVSLTCLVKGFYPSDIAVEWESNGQPENNYKTTPPVLDSDGSFFLYSKLTVDKSRWQEGNVFSCSVMHEALHNHYTQKSLSLSLG"
4.45 nM,0.0011 s⁻¹,247000 M⁻¹ s⁻¹,0.236 µg/mL,no binding (tested: 10 µg/mL),no binding (tested: 10 µg/mL),0.149,3.35,0.138,0.0235 µg/mL,"3E2 scFv-Fc (Fc fusion, scFv-Fc dimer) EIQLQQSGAELVKPGASVKMSCKASGYTFSFYNMHWVKRTPGQGLEWIGLIYPDNGDTSYNQKFKGKATLTADTSSSTAYMQLSSLTSEDSAVYYCARGGLDYWGQGTSLTVSSGGGGSGGGGSGGGGSNIVMTQSQKFMSTSVGDRVSVTCKASQNVGTNVAWYQQKPGQSPKALIYSASYRYTGVPDRFTGSGSGTDFTFTISSVQAEDLAVYYCQQHYSTPYTFGGGTKLEIKESKYGPPCPPCPAPEAAGGPSVFLFPPKPKDTLMISRTPEVTCVVVDVSQEDPEVQFNWYVDGVEVHNAKTKPREEQFNSTYRVVSVLTVLHQDWLNGKEYKCKVSNKGLPSSIEKTISKAKGQPREPQVYTLPPSQEEMTKNQVSLTCLVKGFYPSDIAVEWESNGQPENNYKTTPPVLDSDGSFFLYSKLTVDKSRWQEGNVFSCSVMHEALHNHYTQKSLSLSLG"

# Second part, the binder before the results:
Binder,Kd [1],koff [1],kon [1],EC50 [2],binding result [3],binding result [4],OD (450 nm) value [5],OD (450 nm) value [6],OD (450 nm) value [7],EC50 [8]
"1B8 scFv-Fc (Fc fusion, scFv-Fc dimer) QIQLQQSGAELVKPGASVKMSCKASGYTFASYNLHWVKQTPGQGLEWIGLIYPENGDTSYNQKFKGKATLTADTSSTTAYIQLSSLTSEDSAVYFCARGGFDYWGQGTSLTVSSGGGGSGGGGSGGGGSDIKMTQSPASLSASVGETVTITCGASENIYGALNWYQRKQGKSPQLLIYGATNLADGMSSRFSGSGSGRQYSLKISSLHPDDVATYYCQNVLSTPYTFGGGTKLEIKESKYGPPCPPCPAPEAAGGPSVFLFPPKPKDTLMISRTPEVTCVVVDVSQEDPEVQFNWYVDGVEVHNAKTKPREEQFNSTYRVVSVLTVLHQDWLNGKEYKCKVSNKGLPSSIEKTISKAKGQPREPQVYTLPPSQEEMTKNQVSLTCLVKGFYPSDIAVEWESNGQPENNYKTTPPVLDSDGSFFLYSKLTVDKSRWQEGNVFSCSVMHEALHNHYTQKSLSLSLG",13.3 nM,0.00629 s⁻¹,472000 M⁻¹ s⁻¹,0.133 µg/mL,no binding (tested: 10 µg/mL),no binding (tested: 10 µg/mL),0.171,3.25,0.076,0.0273 µg/mL
"3C7 scFv-Fc (Fc fusion, scFv-Fc dimer) EIQLQQSGAELVKPGASVKMSCKASGYIFRNYYIHWVKRTPGQGLEWIGAIYPDNGDTSYNQRFKVKATLTADTSSSTAYMQLSSLTSEDSAVYYCARAFTYWGQGTTLTVSSGGGGSGGGGSGGGGSDIQMIQSPASLSASVGETVTITCGASENIYGALNWYQRKQGKSPQLLIYGATNLADGMSSRFSGSGSGRQYSLKISSLHPDDVATYYCQNVLSTPYTFGGGTKLEIKESKYGPPCPPCPAPEAAGGPSVFLFPPKPKDTLMISRTPEVTCVVVDVSQEDPEVQFNWYVDGVEVHNAKTKPREEQFNSTYRVVSVLTVLHQDWLNGKEYKCKVSNKGLPSSIEKTISKAKGQPREPQVYTLPPSQEEMTKNQVSLTCLVKGFYPSDIAVEWESNGQPENNYKTTPPVLDSDGSFFLYSKLTVDKSRWQEGNVFSCSVMHEALHNHYTQKSLSLSLG",3.99 nM,0.00114 s⁻¹,287000 M⁻¹ s⁻¹,0.2 µg/mL,no binding (tested: 10 µg/mL),no binding (tested: 10 µg/mL),0.133,3.19,0.091,0.0166 µg/mL
"3E1 scFv-Fc (Fc fusion, scFv-Fc dimer) QVQLQQPGAEVVKPGASVKMSCKASGYTFTDYYIHWVKQTPGQGLEWIGAIYPDNGDTSYNQKFKVKATLTADKSSSTAYMQLSSLTSEDSAVYYCARAFTYWGQGTLVTVSAGGGGSGGGGSGGGGSDILITQSPASLSASVGETVTITCGASENIYGALNWYQRKQGKSPQLLIYGATNLADGMSSRFSGSGSGRQYSLKISSLHPDDVATYYCQNVLSTPYTFGGGTKLEIKESKYGPPCPPCPAPEAAGGPSVFLFPPKPKDTLMISRTPEVTCVVVDVSQEDPEVQFNWYVDGVEVHNAKTKPREEQFNSTYRVVSVLTVLHQDWLNGKEYKCKVSNKGLPSSIEKTISKAKGQPREPQVYTLPPSQEEMTKNQVSLTCLVKGFYPSDIAVEWESNGQPENNYKTTPPVLDSDGSFFLYSKLTVDKSRWQEGNVFSCSVMHEALHNHYTQKSLSLSLG",4.5 nM,0.00152 s⁻¹,337000 M⁻¹ s⁻¹,0.132 µg/mL,no binding (tested: 10 µg/mL),no binding (tested: 10 µg/mL),0.096,3.34,0.118,0.0156 µg/mL
